Source: publication PMC9385479, “GTSF1 accelerates target RNA cleavage by PIWI-clade Argonaute proteins” (Nature, 2022)

T1: MIWI (PIWIL1), mouse, 3×Flag–SNAP-tagged recombinant, loaded with a synthetic piRNA (MIWI piRISC) (mouse, UniProt Q9JMB7 1-862, methylarginines (positions in Extended Data Fig. 1h))
T1 construct: Mouse MIWI (PIWIL1); cDNA from the Mammalian Gene Collection; not shown: 3×Flag, N-terminal, kept; SNAP, N-terminal, kept
T1 sequence (looked up): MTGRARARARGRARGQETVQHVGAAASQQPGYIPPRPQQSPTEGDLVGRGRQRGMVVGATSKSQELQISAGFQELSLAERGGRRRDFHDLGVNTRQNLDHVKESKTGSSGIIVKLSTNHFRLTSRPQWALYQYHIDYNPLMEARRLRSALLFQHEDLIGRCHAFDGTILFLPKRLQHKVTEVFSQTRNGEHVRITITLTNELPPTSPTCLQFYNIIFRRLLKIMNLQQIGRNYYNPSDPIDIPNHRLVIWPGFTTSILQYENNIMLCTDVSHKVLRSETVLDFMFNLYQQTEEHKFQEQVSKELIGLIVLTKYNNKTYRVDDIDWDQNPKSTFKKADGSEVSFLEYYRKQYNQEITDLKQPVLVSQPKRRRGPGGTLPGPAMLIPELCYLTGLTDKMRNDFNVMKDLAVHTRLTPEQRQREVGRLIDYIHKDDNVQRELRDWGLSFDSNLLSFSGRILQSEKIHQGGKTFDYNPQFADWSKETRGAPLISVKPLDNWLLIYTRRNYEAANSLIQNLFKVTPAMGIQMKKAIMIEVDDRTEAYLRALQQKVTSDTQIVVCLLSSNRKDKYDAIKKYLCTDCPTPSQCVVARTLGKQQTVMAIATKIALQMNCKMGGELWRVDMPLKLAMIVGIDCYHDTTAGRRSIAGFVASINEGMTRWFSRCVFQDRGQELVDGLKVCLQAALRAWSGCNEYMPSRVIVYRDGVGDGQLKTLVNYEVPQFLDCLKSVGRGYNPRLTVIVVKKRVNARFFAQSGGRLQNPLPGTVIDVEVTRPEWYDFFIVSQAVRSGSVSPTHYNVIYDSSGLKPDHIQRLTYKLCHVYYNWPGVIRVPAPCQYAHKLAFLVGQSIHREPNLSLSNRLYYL


Experiments:
[1] = target: MIWI (PIWIL1), mouse, 3×Flag–SNAP-tagged recombinant, loaded with a synthetic piRNA (MIWI piRISC) (mouse) (UniProt Q9JMB7)
[2] = target: T1, MIWI (PIWIL1), mouse, …; assay: enzyme kinetics titration (pre-steady-state target-cleavage rate k_burst against GTSF1 concentration); k_burst of MIWI piRISC measured at 1–5,000 nM GTSF1 and fit to kburst=kpot[GTSF1]/(Kd+[GTSF1]); Kd is for the MIWI piRISC–target RNA ternary complex; conditions: both partners purified

amount of target RNA cleaved by MIWI piRISC with 100 nM recombinant GTSF protein (fold increase) [1]	Kd [2]	Molecule
2.6 fold		BmGtsf1-like, Bombyx mori, V5SBP-tagged purified recombinant (natural protein)
	8 nM	Gametocyte specific factor 1 (GTSF1), mouse, wild type, purified recombinant (natural protein, UniProt Q9DAN6 1-167, looked up, Mouse GTSF1, tandem CHHC-type zinc-finger protein, printed mass 19,083 Da; cDNA synthesized at Twist Biosciences; Grown with 1 uM ZnSO4 (zinc-finger protein); also called wild-type GTSF1; MmGtsf1; source: E. coli Rosetta-Gami 2 (pCold-GST), purified (glutathione Sepharose, HRV3C cleavage, HiTrap Q)) MEDTYIDSLDPEKLLQCPYDKNHQIRACRFPYHLIKCRKNHPDVANKLATCPFNARHQVPRAEISHHISSCDDKSCIEQDVVNQTRNLGQETLAESTWQCPPCDEDWDKDLWEQTSTPFVWGTASFCGNNSPANNIVMEHKSNLASGMRVPKSLPYVLPWKNNGNAQ
	500 nM	GTSF1(W98A/W107A/W112A), mouse, PIWI-interacting mutant, purified recombinant (natural protein, UniProt Q9DAN6 1-167, looked up, Mouse GTSF1 with W98A, W107A and W112A; expression vector synthesized at Twist Biosciences; also called PIWI-int mutant GTSF1; source: E. coli Rosetta-Gami 2 (pCold-GST), purified (glutathione Sepharose, HRV3C cleavage, HiTrap Q)) MEDTYIDSLDPEKLLQCPYDKNHQIRACRFPYHLIKCRKNHPDVANKLATCPFNARHQVPRAEISHHISSCDDKSCIEQDVVNQTRNLGQETLAESTAQCPPCDEDADKDLAEQTSTPFVWGTASFCGNNSPANNIVMEHKSNLASGMRVPKSLPYVLPWKNNGNAQ
